Source: the NTF2 design screens of Basanta et al. (2020)

Assay: protease stability score; higher = more stable; yeast display proteolysis, trypsin and chymotrypsin;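 further: relative to predicted unfolded state with 0 unfolded-like and 1 meaning tenfold more protease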

| Sequence | protease stability score |
| --- | --- |
| SEEEDESEEMARLFVKANITGDEKFLYHMADPHVRIHIHQGNKYIELHGREKLEYWLKEWLEKFKNIRYTINDMKVVGEKVTIESTLQIGDKRIHMQIVIVVINGRIHKFEFHLH | 0.755 |
| SEEEDESKLATELLIKLLRTGNEHLSERLMDPNMRIVVNGVELHGREEAQRHMREMITQIKNAKIEIRDERTQGEYIKVNMILHYGDKTIDLRVVLVKVDGRWKITEIVLN | 1.8 |
| SEEEDFMRQVYHWFLELWLTGDEDIFKKLADPDTLLDWNGVQSVGMEEFHRLLHEMEERLGVKHKEYKRFRIQGNKVHLDLVHEFNGRRIKTEIVVVVVNGRFKEIRIRHH | 1.79 |
| SEEEDHAKEMFRILIENLITGDEDTLRKLIDPDVRFIYGDKLHVGWKDFREWQHRMDRRVKNMKIHVRDMRVYNGVSHAETEEHYNGKTVETEVHFKVIDGQLKHLEIRIH | 0.188 |
| SEEEDHIREFLLLIIHAFRTGDEEFFERNVDPNVRLHSDVDGRELQLHGRDEFSRYFHHFRHRAGIDHIEDKRVTSQGDKIIVHGWSIVGDKIHHLELHFIVIDGQVHTVEIRPK | 1.28 |
| SEEEDHIRRAIERFSKDQETGDEDSIRELLDPHVRMHVDGQELIGRDLILKFWSELRVHHWEMHSVRVVGDYVDFDVTLDMRVGDKSHRIKATLIILKIDGRWILKLVIID | 1.19 |
| SEEEDISRNLLEIFLRVLLTGDEHAISRLLDPRVLVIFHFENRDIILHGRSNVLKWLHDRLREIRINDWSVKSVEVQGNKAHQDTRIDIIIGDKKIDKEVEVNITVVDGKVKHLEIRVH | 2.21 |
| SEEEDKARHLFDRLVHAWHTGDWRELKHLLDPNAKFVLEYGDKKETYHGMDEEIRYLEELHKRVDHIHFLIRHVDIQGDKLRVEGELEYRVGDYERRIPTSYEVIVIDGRIHEIISRIH | 2.11 |
| SEEEDLFRKIIELLLRLSKTGDEETWRRLMDPHARLEINGRIFHGREYAERFMTQFDHIHSIEIKDMHIYNGKVEEHGHVDGIVNGRRTKHDMVFILVKVDGVWLIEEVVVR | 1.39 |
| SEEEDLHRHIMRLFLEWVLTGDEEDLYHFADPHTQFRYGDYELHGMEKIVEEILRFTHELRITHFTIHQMDVFNGKAESDVEWHKDVNGQEVRFRLKLILIVINGRTKSIEIRHK | 1.23 |
| SEEEDLMRHLTELYIRAFETGDEDHLRKLADPHVRLHVDIDGKRLDFHGMEQTSEWWERMGIDVHHLHHHEFIGDKSHIDSEVVFNGRKRKFEINVVIVNGRIKSERHIFK | 0.691 |
| SEEEDLVQKAFEIFVHDIRTGDEDSLIENADPNVRLLINGVIFHGREEFKFIMRHWRIRRIELHDYRIQGDKAHVESRMDIEFNGRIRITHVELVILKVNGQWLIHTIKVI | 0.454 |
| SEEEDLWKEFLRRLVETSNTGNERILSELFDPRTRIIYNGVDYVGREWALFMFLRADHVHIRIKSVDVQGEKAHVDGRMIQFVGDKEERHEVQLIDVKIDGRWLIRMMTVR | 1.51 |
| SEEEDMARHFNELFIKMLKTGNEEEIKKMADPEVRIIIDVGDYIERDHGWEVLKREREWLGIKHIDIERAEIRVFDGRVHLKLDGRSNVNGKEIEVEIINDTEKINGRWRMKNLRYIFK | 1.08 |
| SEEEDMKRKLAEIFLHNELTGNEDRLMELLDPNTRMEFNGREVHGREQISEVLRRWLEEIRIDDSKLHDIRVINGVAHIDVRLRGTVDGRHTILQVHLYLFVVNGRIKSFRIEIR | 1.53 |
| SEEEDQARKIMEILIHVFLTGDWHQLMRLLDPNTRYEIRFENHEEHNHGREDIVRWLIEFIEEMRTLVIIRHIEVQGDKAILDIELQLDINGREFRWKTLLHFRIVDGVLKMYYIHIE | 1.47 |
| SEEEDRIRQALELELHYLRTGDEDSTRRLIDPHMKLTVNGKEHHGMDWFIEELRRVDHIEMHPHHIHSFGEKAHIRVKLTLHFDGVTFERDVTIVFHKVDGRWVIESMQLD | 1 |
| SEEEDTADEAIKLWLKLFITGDERTLARMMDPNTLNVVGDKEFHGWQFIIELVHKLFEEIRIHELTVEHLHVQGDKVRIDIRIDSRQGDKRHETKVEVILRKVNGRWTVEVIEIH | 2.39 |
| SEEEDTMRHLLHLLIEWELTGDWKNWQKLADPRTRIEINGRELHGRETYAEFIREVLEQFKNLVIHDFIMHDVKVFDGRVIVDGYVDTEINGVRTHIRVEFILIVVNGKLRRVSRIVR | 1.57 |
| SEEEDYMRELAERFLHAFITGDWQFIYKMFDPRVRWNVDGQNFVGREQLVHHLEKIKREMRVRHFELKDIKIIDGVSFINGRVDTTYGDKSSEHEVHISLVLIDGRVKHVQIRLE | 2.34 |
| SEEEEAARHVLEEWLRSIRTGDEEFTERLLDPEARFHVNGVEIIGREHIIRRLREIRIHDIKMDVREIRIVDGRISIDVTYRIDGEVNGVKVDTSHEVRLVFVKINGRWLNRKEEVR | 1.66 |
| SEEEEAEREFWEEFLRTSRTGDEELFEELIDPNVKIDINGRDLHGMEEALDTFRELRIKDIKVKHVEEQGDKIILDGRVDGIFDGKYDRVEVTFFVLKIDGRWVYHSIRLE | 1.13 |
| SEEEEAKRDLDERWFRSIETGDFHTLEKLLDPHAKVRINGKDYHGREYLEWEIRDLGVKVMEQRVIIHREHRQGDKIHLQGEIIRILHVDGREEHHRFEVHYVMLKINGRWILHRMEFR | 0.883 |
| SEEEEATKEMSRLVLENLKTGDFDAFHRLFDPNAKLDVGDKHFHGREQIHEWYLHVREELGVDVSRVHEKHIQVIGNKVILHGELHLRIGDKRDDTTMWIVSKKFDGRWILSSMRIS | 1.32 |
| SEEEEDAEEFSRLFAELMKTGDEESLHRLADPDVRLHYGDKDHHGREQYTESWKRILDELGVDNVRIELKSVRVINGVVYVDSLVRVGDKTFRLIVIFRKINGRWRLESVKVE | 1.29 |

| Sequence | protease stability score |
| --- | --- |
| SEEEEDAERAERLIFEYHRTGDERLFRELVDPNVRLRVGDKEYHGREDFLRIMLELRIDRMHLHEIRVVDGRVHSRTEVDGTWNGRKFLTETESIIIKINGRWVLHSFHFH | 1.69 |
| SEEEEDAHRNIELLVRYLITGDEETVSRLVDPHVKTDINGQEDHGWQIMSILMEKFKNVTLRLHDIETQGNFAVINMKMRFNGQTFDLHFFARKVNGRWFVEHIKIRQN | 1.62 |
| SEEEEDARQAFEEYTESLKTGDEDTLDRLLDPDTLLIINGREIHGMEEAIRIWHVWLRHMRFRSQEMRRIRVIDGKIDIESRSIIDINGREVDLRVHYILHKVNGRWLIESVRFE | 2.38 |
| SEEEEDARRAFEMWFRVLMTGDEDQVDRLMDPHVRVDINGVDLHGRTTIRRLIHEEFNRADVRSFDVEHVDYQGDWVRLEVRLILVFNGKRLELKMELISRKINGRWILESQVVE | 1.39 |
| SEEEEDARRMMEILIKTLKTGDWRTIRRLVDPNVRVDFNGVDDHGRENWLKHVLHIRFKRIYIRDVRVYDGRVHIHGEINIEFDGRSDHYEVEIHIDKVDGRWVITHILIV | 2.26 |
| SEEEEDIRKFLEDHHRAFATGDEKRLTELMDPNVRFDVNGVDRHGRELAVEMLHKQREEMGIDHLETIEMQDHEVYGDYIHLDVEVHIRVNGKRHILKRRILWLKINGRWTIKHEQLR | 0.464 |
| SEEEEDIRRLEEMLTKNLLTGNEHKLRRLADPHVQIHINGVDIVGMEWMVQVRREMRVEHVDSRIDDVRVIGDKAEVDGTLIIVGEVDGQRTNETIRIHRVFEKVNGRWILHSETFI | 1.15 |
| SEEEEDLKTMSDFVLHLFETGDEDIFNHFADPDARLHIGDKIAHGREHFKRVFEDLMHRLGVDHIEIRRRSITIIGDKVHAHVDGLTVIGDKVHHVELRFVIVKYNGRWFLKRVEVHNR | 1.71 |
| SEEEEDMRKAHEFVDKLIHTGDEDETRRYADPNVLVTINGRRWVGRDDYVEVLREILHRADHVHLHEKSIRIVDGVVQINSNLFIKQGDKEIHLDIRFHIRKVNGRWDMKRMEIR | 1.64 |
| SEEEEDRRIAVEEMLRYWHTGDEEDLNRLFDPNVRADFNGKDLVGREHMKEHYERLGYDKFDVRVKDVRVIGDKVEMDGHLRFDGVERDLHIFVIKVNGRWLVKHTEYR | 0.904 |
| SEEEEDSLIAWKLYFEIEQTGDEKSLEHYMDPDTRYSQGEFRMHGREYTYHIIFRNRKRLGWDRVEVRLHSYEIINGRIKLDMRVHVNGVDINLLVIAFKFNGKWTIETVRIE | 1.36 |
| SEEEEDTERALRLELNLLMTGDEEQFWKNMDPHVRTHFNGQERHGREYATHVLRQLGVKHVRLHDVRIIGDKIDIDMRTNVDGRIFRVHIHSEKVNGRWHIHEFFIE | 1.07 |
| SEEEEDTERAMELAHHLLFTGNWEIMLKLFDPHMRLEFNGVDNHGREQVIREIRERIKLLGITNIELEPEEVRVQGDKVILHSRVDYNGKHYETEFVAEKVDGRWFIRSMRYE | 1.3 |
| SEEEEDVRIALLMLEHTMRTGDEEDTREMADPNVRVEVGDKELHGRELYVEWFHRLGVKHFDIREVRFIGDKVNIRGISHVNGRNYHVVLHARKIDGRWHLTLWEMR | 1.41 |
| SEEEEDVRKFVHMLMLSFITGDWKMLWEMLDPEVRLHVGDKTIIGRERFVSFMQRLLRELRIKDFHVDSIEIQGEKAIIHTTLHIVIGEKEEDRYVRYIVIKIDGRWLIHRVHIH | 2.74 |
| SEEEEEADRLEEHWVKSLLTGDEEELAKNADPNTRLDIDGKIVHGMEHFIRFFSEIFKRVDHTEIRIRDSKFDGDKIHNRVEILIRFNGRTIRIDVRIIMRKVDGRWIHESMHIE | 1.9 |
| SEEEEEAERAIKLWIHNVLTGDEDSLTKLLDPHVKIIDYVNGVEINNHGREWVKHWLEHLRYDIIRIHEFRSQGDKVHVDGKSEGNYNGKHVETRVMFHLHVYNGVIKSVHIIHI | 1.63 |
| SEEEEEAERIYRNWLHNLHTGNEESERLMADPDVRYEINGVERVGWEEVHHFLREIRVHLRHVEIKHSDLINGRAHIEGHVDMEVRVNGVTMRIRTDTILRVVVIDGRLKSVSQEIL | 0.648 |
| SEEEEEAHKFIEDWRTALETGDFDSIKELIDPNVRLHIGDKDLVGREEWVRELRRRKERYKGLRLKVHIKHVDIFDGRLIVDAEIRIDIGDKHLHYRVHIFVHKVNGRWQMKRYEEE | 2.57 |
| SEEEEEAHRYQEEWKRVHRTGDEDRFRELMDPNVRIHLNINGKNIHLHGRQLAVDFLRHIHLHWRDHEIHTHDIRHFNGVTHVTGRLDGEVNGRRIDTHVEFHHHVFNGRIKSIIIIVH | 1.33 |
| SEEEEEAQRFFEEWSKSWVTGDEDLTLHLLDPNVKVDIGDKVYHGRESYLELLHLILREARVHSFHMHRLEVIGEKANIDSRVDHEVGDKRDTVHMNMIVVKINGRWILKSIQIK | 2.58 |
| SEEEEEARDILKMLFTALDTGNEEYFLNLIDPNVRISVGNYTIVGREQWTEHMRRVKNMQIDDISIKDIKFQGELLRIHGHLVGRFDGQHSHFHVDIIFRKVNGQWHQKEIIIK | 1.99 |
| SEEEEEARKAFDDFYKSLETGDEEDLSKMIDPHVRIDINGREVHGREYAQTFWRDLIEKVKNLTLHLRDFRVIDGRLHSKMEIHQGEFHTEVNIHSKKINGRWLVQTFEFR | 1.84 |
| SEEEEEARKFSEDLIRSTRTGDEKAWNDLLDPDVRIDINGKTHHGREEFLKLLQHLRERADHWRIELKHTDVYDGKVHHDIHVQISVGDKTFHHRIHLIVVKIDGKWLLKRVDVR | 2.16 |
| SEEEEEAWRSTEKWTHSEKTGDFESLLRLADPNARVHVNGRELVGMETVIRRFIEHVERFKNIRIQHHTEHIEFYGDKVIIDSRLHISIGDKTITITIELVTTKFNGRWLLQEITIK | 0.475 |
